Where “and” joins values, the source holds several entries; their conditions need not be identical. Equal entries are not always repeated. Where two headings read alike, the source gives them in different places.
Tests used:
HEK-Blue™ IL-2 cells = assay: HEK-Blue IL2 reporter assay (SEAP, OD630); format: cell-based; settings: Table 5C
Procedure: Recombinant MMP9 and/or MMP2 (R&D Systems) was first activated with p-aminophenylmercuric acetate and this activated protease or equivalent amount of activating solution without the protease was used to digest or mock digest the fusion protein for 1 hr, 2 hr, 4 hr and overnight (18-22 hr) at 37 C. Cleavage assays are set up in TCNB buffer: 50 mM Tris, 10 mM CaCl2), 150 mM NaCl, 0.05% Brij-35 (w/v), pH 7.5. Digested protein was aliquoted and stored at −80° C. prior to testing. Aliquots of digests were subsequently analyzed by SDS-PAGE followed by Western blotting to evaluate the extent of cleavage. Digests were also assessed in functional assays such as CTLL-2 proliferation and HEK-Blue Interleukin reporter assays. As shown in FIGS. 2A-E, essentially complete cleavage by MMP9 protease of the fusion proteins with functional site is seen after overnight incubation. In contrast, proteins containing a scrambled MMP cleavage site are not cut (FIG. 2E). HEK-Blue™ IL-2 cells are specifically designed to monitor the activation of the JAK-STAT pathway induced by IL-2. Indeed, stimulation with human or murine IL-2 triggers the JAK/STAT5 pathway and induces secreted embryonic alkaline phosphatase (SEAP) production. SEAP can be readily monitored when using QUANTI-Blue™, a SEAP detection medium. These cells respond to human and murine IL-2. For the HEK Blue assay, untreated and digested samples are titrated and added to 50 000 HEK Blue cells per well in 200 ul medium in a 96-well plate and incubated at 37C in 5% CO2 for 20-24 hr. The following day, levels of SEAP are measured by adding 20 uL of cell supernatant to QuantiBlue reagent, followed by 1-3 h incubation at 37C and reading absorbance at 630 nm. FIGS. 3C-J, 3Q-Y and Table 5B-5C show results obtained from IL2 fusion proteins tested in HEK Blue IL2 assay.

collagen = assay: IL-2 fusion protein collagen-agarose pulldown (immunoblot quantitation); format: binding; settings: for Bound: blot quantitation, collagen-agarose bound fraction; for Normalized: bound fraction relative to Construct B (fold); for Bound (% input): fraction bound to collagen-agarose; for binding to collagen-agarose beads vs control agarose beads: pulldown 18-22 h at 4C
Procedure: To test binding to collagen, a pulldown assay using agarose cross-linked to collagen (Sigma) was performed. IL-2 fusion proteins were incubated with collagen-agarose or control agarose beads for 18-22 h at 4C with gentle rotation in 1% BSA/PBS-0.05% Tween 20. After washing, proteins bound to the beads were eluted by resuspending beads in SDS sample buffer (Life Technologies). Bound proteins were then separated by SDS-PAGE on 4-12% BisTris gradient gel followed by immunoblotting with goat anti-mouse IL-2 polyclonal antibody (AF-402-NA; R&D systems). Donkey Anti-goat RP-conjugated antibody was used for detection (Jackson Immuno Research, West Grove, PA) and the blot was developed using the SuperSignal West Femto Maximum sensitivity detection reagent (ThermoFisher) following the manufacturer's recommendations.

[1] = Drug and IL-2 levels in B16F10 tumor lysates by ELISA; format: in vivo, mice; settings: for IL-2 levels in treated tumors compared to Construct B treated tumors: free IL-2 calculated by subtraction, 24 h after last dose
Procedure: (§1) We developed an ELISA assay to detect and quantify fusion proteins comprising IL-2 and IL-2Rα moieties. Wells of a 96-well plate are coated overnight with 100 uL of a rat anti-mouse IL-2 monoclonal antibody (JES6-1A12; ThermoFisher) at […] in PBS. After washing, wells are blocked with TBS/0.05% Tween 20/1% BSA, then fusion proteins and/or unknown biological samples are added for 1 hr at room temperature. After washing, an anti-mouse IL-2Rα biotin-labelled detection antibody (BAF2438, R&D systems) is added and binding is detected using Ultra Strepavidin HRP (ThermoFisher). The ELISA plate was developed by adding the chromogenic tetramethylbenzidine substrate (Ultra TMB, ThermoFisher). The reaction is stopped by addition of 0.5M H2SO4 and the absorbance is read at 450-650 nm.
We developed a second ELISA assay to detect and quantify mouse IL-2 and/or fusion proteins comprising an IL-2 moiety. Wells of a 96-well plate are coated overnight with 100 uL of a rat anti-mouse IL-2 monoclonal antibody (JES6-1A12; ThermoFisher) at […] in PBS. After washing, wells are blocked with TBS/0.05% Tween 20/1% BSA, then fusion proteins and/or unknown biological samples are added for 1 hr at room temperature. After washing, an anti-mouse IL-2 biotin-labelled detection antibody (JES6-5H4, ThermoFisher) is added and binding is detected using Ultra Strepavidin HRP (ThermoFisher). The ELISA plate was developed by adding the chromogenic tetramethylbenzidine substrate (Ultra TMB, ThermoFisher). The reaction is stopped by addition of 0.5M H2SO4 and the absorbance is read at 450-650 nm. This assay is able to simultaneously detect both free mouse IL-2 as well as mouse IL-2 in the context of pro-drug fusion proteins.
We quantified levels of full-length IL2-IL2Ra fusion proteins and IL-2 in tumor samples collected during pre-clinical efficacy studies comparing Construct B and retention linker IL-2 fusion drugs (see example 17).
Tumors (n=3 per group) were collected 24 h after the last dose injection, flash frozen and stored at −80C until further processing. Tumor lysates were generated using tissue extraction reagent (ThermoFisher) supplemented with protease and phosphatase inhibitors and standard techniques and protein concentrations were determined using the BCA assay (Pierce).
Lysates were tested with in-house ELISAs to measure full-length IL-2 fusion proteins (IL-2 capture/IL-2Rα detection) and IL-2 fusion proteins+free IL-2 (IL-2 capture/IL-2 detection). Free IL-2 levels in tumor were calculated by subtracting drug levels from the drug+IL-2 data set. Results were normalized to 1 mg of tumor lysate and mean values are shown in FIG. 15C-H. Levels of Construct CC (20 mg/kg dose) in tumor are roughly 3-fold higher compared to Construct B levels, despite Construct B being dosed at 40 mg/kg (FIG. C). […] Likewise, IL-2 levels in Construct CC, Construct GG and Construct II treated tumors are elevated compared to Construct B treated tumors (FIG. 15E/H). This implies that next generation retention linker technology is able to retain in TME both full-length drug and released IL-2 post-cleavage.

[2] = Full-length drug levels in serum by ELISA; format: in vivo, mice; settings: 10 mg/kg cohort, 24 hrs after dosing
Procedure: as §1
Additional serum samples collected at Day 17 (Construct B 20 mg/kg) and Day 21 (Construct Y 20 mg/kg), 4 days and 8 days respectively after the last IV injection, were assayed for full-length IL-2 fusion drug.

B16F10 melanoma = assay: In vivo efficacy of retention linker IL-2 drugs in B16F10 syngeneic model (Example 17); set-up: species or system mice; settings: for TGI (%) D 15: 10 mg/kg IV Q3D, 5 doses; for TGI (%) D 20: 10 mg/kg, 7 days following the fifth dose
Procedure: (§2) In a first efficacy study, C57BL/6 mice were subcutaneously inoculated with B16F10 melanoma cells and when the average tumor volume reached on average 70-90 mm^3, animals were randomized into 5 groups based on tumor volumes (n=6 mice per treatment group). Mice were dosed intravenously every 3 days (Q3D) for a total of 5 doses according to following design:
as §2, with “second” for “first”, “study in the same model,” for “study,”
On Day 20, mice received an additional dose of drug, animals were sacrificed 24 hrs later and tissues and blood (processed to serum) were collected and stored at −80C for further testing. […] This is most likely due to the higher levels of both circulating drugs in serum and resident drug in TME, which can exert prolonged anti-tumor activity even after an extended dosing holiday.

[3] = cleaved with MMP9, read-out: +MMP EC50

Molecule	EC50 (HEK-Blue™ IL-2 cells; [3]) [nM]	EC50 (HEK-Blue™ IL-2 cells; uncleaved, read-out: −MMP EC50) [nM]	Bound (collagen)	Normalized (collagen)	Bound (% input) (collagen) [%]	binding to collagen-agarose beads vs control agarose beads (collagen)	drug level in tumor, comparison in 10 mg/kg dosing cohort ([1]; 10 mg/kg, tumors 24 h after last dose)	IL-2 levels in treated tumors compared to Construct B treated tumors [1]	drug levels in serum relative to Construct B [2]	TGI (%) D 15 (B16F10 melanoma)	TGI (%) D 20 (B16F10 melanoma) [%]
Construct GG: SEQ ID NO 817: m IL2-SGG-KLWVLPK-MMPcs1-2x(G4S)-mIL2Ra(1-215)-mu IgG1 Fc (protein) APTSSSTSSSTAEAQQQQQQQQQQQQHLEQLLMDLQELLSRMENYRNLKLPRMLTFKFYLPKQATELKDLQCLEDELGPLRHVLDLTQSKSFQLEDAENFISNIRVTVVKLKGSDNTFECQFDDESATVVDFLRRWIAFCQSIISTSPQSGGKLWVLPKGPLGVRGGGGGSGGGGSELCLYDPPEVPNATFKALSYKNGTILNCECKRGFRRLKELVYMRCLGNSWSSNCQCTSNSHDKSRKQVTAQLEHQKEQQTTTDMQKPTQSMHQENLTGHCREPPPWKHEDSKRIYHFVEGQSVHYECIPGYKALQRGPAISICKMKCGKTGWTQPQLTCVDEREHHRFLASEESQGSRNSSPESETSCPITTTDFPQPTETTAMTETFVLTMEYKGCKPCICTVPEVSSVFIFPPKPKDVLTITLTPKVTCVVVDISKDDPEVQFSWFVDDVEVHTAQTQPREEQFNSTFRSVSELPIMHQDWLNGKEFKCRVNSAAFPAPIEKTISKTKGRPKAPQVYTIPPPKEQMAKDKVSLTCMITDFFPEDITVEWQWNGQPAENYKNTQPIMDTDGSYFVYSKLNVQKSNWEAGNTFTCSVLHEGLHNHHTEKSLSHSPGK	0.0072	0.14	5191	2.5	0.7	specifically bound by collagen-agarose beads	highest levels	elevated	roughly 5 fold	57% and 57.18%	64.70
Construct II: SEQ ID NO 819: m IL2-LHERHLNNN-MMPcs1-2x(G4S)-mIL2Ra(1-215)-mu IgG1 Fc (protein) APTSSSTSSSTAEAQQQQQQQQQQQQHLEQLLMDLQELLSRMENYRNLKLPRMLTFKFYLPKQATELKDLQCLEDELGPLRHVLDLTQSKSFQLEDAENFISNIRVTVVKLKGSDNTFECQFDDESATVVDFLRRWIAFCQSIISTSPQSLHERHLNNNGPLGVRGGGGGSGGGGSELCLYDPPEVPNATFKALSYKNGTILNCECKRGFRRLKELVYMRCLGNSWSSNCQCTSNSHDKSRKQVTAQLEHQKEQQTTTDMQKPTQSMHQENLTGHCREPPPWKHEDSKRIYHFVEGQSVHYECIPGYKALQRGPAISICKMKCGKTGWTQPQLTCVDEREHHRFLASEESQGSRNSSPESETSCPITTTDFPQPTETTAMTETFVLTMEYKGCKPCICTVPEVSSVFIFPPKPKDVLTITLTPKVTCVVVDISKDDPEVQFSWFVDDVEVHTAQTQPREEQFNSTFRSVSELPIMHQDWLNGKEFKCRVNSAAFPAPIEKTISKTKGRPKAPQVYTIPPPKEQMAKDKVSLTCMITDFFPEDITVEWQWNGQPAENYKNTQPIMDTDGSYFVYSKLNVQKSNWEAGNTFTCSVLHEGLHNHHTEKSLSHSPGK	0.009	0.489	2277	1.4	0.4	specifically bound by collagen-agarose beads	–	elevated	~3 fold	57% and 57.68%	68.52
